{"source": "patent US10100120B2", "about": "“Antibody which specifically binds to human CRTH2” (KYOWA HAKKO KIRIN CO., LTD, priority 2015, dated 2018)", "molecules": {"B1": {"name": "chLym2: rat/human chimeric Lym2 antibody, Lym2 variable regions with human IgG1 and κ constant regions (antibody, V domains shown)", "VH": "EVQLVESGGGLVQPGRSMKLSCAASGFTFSNYYMAWVRQAPKKGLEWVATISYDGSSTYYRDSVKGRFTISRDNAKSTLYLQMDSLRSEDTATYYCARHRGYYYSGAGYFDYWGQGVMVTVSS", "VL": "DVVLTQTPVSLSVTLGDQASISCRSSQSLEYSDGYTYLEWYLQKPGQSPQVLIYGVSNRFSGVPDRFIGSGSGTDFTLKISRVEPEDLGVYYCFQATHDPLTFGSGTKLEIK"}}, "key": {"[1]": {"target": "T1, mutated human CRTH2 with amino acid substitution (Homo sapiens, UniProt Q9Y5Y4, D171A/I173A/T172A)", "T1 construct": "inserting genes encoding various mutants with amino acid substitution obtained by deleting termination codons; expressed in transfected cells; host or cells: CHO-S cells (Lifetechnologies), transient (phmAG1-MNLinker vector)", "T1 sequence (Q9Y5Y4 1-395 D171A/T172A/I173A)": "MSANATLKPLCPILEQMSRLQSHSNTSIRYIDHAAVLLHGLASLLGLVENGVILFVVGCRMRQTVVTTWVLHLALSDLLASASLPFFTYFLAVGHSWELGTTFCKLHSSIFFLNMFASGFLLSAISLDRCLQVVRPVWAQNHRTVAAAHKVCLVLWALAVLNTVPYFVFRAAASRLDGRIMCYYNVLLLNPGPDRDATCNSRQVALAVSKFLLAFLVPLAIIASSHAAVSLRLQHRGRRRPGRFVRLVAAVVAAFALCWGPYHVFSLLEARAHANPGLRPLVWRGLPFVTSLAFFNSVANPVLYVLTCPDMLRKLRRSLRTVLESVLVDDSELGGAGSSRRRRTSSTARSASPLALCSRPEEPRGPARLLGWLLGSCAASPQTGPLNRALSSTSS", "assay": "Epitope analysis using CHO-S cells which express mutated human CRTH2 with amino acid substitution", "type": "binding", "conditions": "mutant D171A, T172A, and I173A; antibody 10 μg/mL; relative to wild-type = 100%", "protocol": "A mutant with amino acid substitution expression vector obtained by partially substituting amino acid residues in an extracellular region with other amino acid residues among the amino acid sequences of human CRTH2 was prepared. Specifically, mutant with amino acid substitution expression vectors obtained by substitution of S2A; N4A; T6A and L7A; K8A, P9A, and L10A; P12A, L14A, and EISA; Q16E, R19H, and Q21R; H23A, S24A, and N25A; T26A, S27A, and I28A; D171A, T172A, and I173A; S174A, R175A, and L176A; D177A, G178A, and R179A; 1180A and M181A; Y183A, Y184A, and N185A; L187A, L188A, and L189A; N190A; P191A; G192A; P193A; D194A; R195A; D196A, and T198A; N275A, G277A, and L278A; P276A; P279A and L281A; P280A; or V282A, R283A, and R284A in the amino acid sequences represented by SEQ ID NO: 2 were respectively prepared. It should be noted that the above symbols in the amino acid substitution indicate [single letter code of an amino acid residue before substitution] [substitution position counting from the N terminal] [single letter code of the amino acid reside after substitution].\nAzami-Green tag was added to the intercellular C terminal region by inserting genes encoding various mutants with amino acid substitution obtained by deleting termination codons to the restriction enzyme sites of BamHI and HindIII using phmAG1-MNLinker (MBL) as expression vectors.\nThe above-described vectors expressing mutants with amino acid substitution were prepared using 1) a method of entirely synthesizing gene sequences encoding mutants with amino acid substitution and inserting the gene sequences into a vector or 2) a method of performing site-specific mutation from a vector into which DNA which encodes the amino acid sequences of wild-type human CRTH2 represented by SEQ ID NO: 1 was inserted.\nCHO-S cells (Lifetechnologies) were used for preparing mutated human CRTH2 with amino acid substitution expressing cell lines. Free style CHO expression medium (Invitrogen) containing 8 mM L-Glutamine (Invitrogen) was used for subculturing cells and the cells were cultured by shaking under the conditions of 37° C. in the presence of 5% CO2.\n25 μg of the mutated human CRTH2 with amino acid substitution expression vector prepared in (1) described above was dissolved in 400 μL of Opti-Pro SFM (Invitrogen) and 25 μL of a Freestyle MAX Reagent (Invitrogen) was dissolved in 400 μL of Opti-Pro SFM and each of them were allowed to stand at room temperature for 5 minutes. The two liquids were mixed with each other and allowed to stand at room temperature for 15 minutes. The mixed solution was added to the CHO-S culture solution and the cells were cultured for 24 hours, thereby obtaining cell lines which express mutated human CRTH2 with amino acid substitution.\nThe CHO-S cells which express mutated human CRTH2 with amino acid substitution established in (2) were washed with SM, seeded in a 96-well plate such that one well has 2×10^5 cells, and centrifuged at 1700 rpm for 2 minutes. After the supernatant was removed, chLym2, LV0HV1, the anti-human CRTH2 antibody hu19A2 v52, hu8B1 v1, ch3C12, or ch31A5 prepared in Example 9, or a commercially available anti-human CRTH2 antibody BM16 (Santa Cruz) prepared to have a concentration of 10 μg/mL using SM was added thereto to cause a reaction at 4° C. for 1 hour.\nAfter the cells were washed, goat anti-Human IgG Alexa 647 (Molecular Probes) diluted with SM was added to wells to which chLym2, LV0HV1, hu19A2 v52, hu8B1 v1, ch3C12, or ch31A5 was added and goat anti-Rat IgG Alexa 647 (Molecular Probes) diluted with SM was added to wells to which BM16 was added at a final concentration of 10 μg/mL to cause a reaction at 4° C. for 1 hour.\nAfter the reaction, the cells were washed and suspended with SM, and the fluorescent intensity was analyzed by flow cytometry (BD Biosciences, FACS CantoII). […]"}, "[2]": {"tested_on": "human basophils", "assay": "Reactivity against human basophils, flow cytometry", "type": "binding", "conditions": "10 μg/mL, 4° C., 1 hour; FIG. 9", "protocol": "To human peripheral blood collected by adding a heparin sodium injection liquid, the same amount of physiological saline for injection as the human peripheral blood was added and mixed with each other. 15 mL of Ficoll-Paque PREMIUM 1.084 (GE Healthcare) was added to a 50 mL centrifuge tube, 30 mL of the human peripheral blood diluted with physiological saline was overlaid thereon, and centrifugation was performed at room temperature and 1500 rpm for 30 minutes.\nAfter the centrifugation, the mononuclear cell layer was recovered using a pipette and washed twice with an MACS buffer. After the number of cells was counted, basophils were isolated by a negative selection method using Basophil Isolation Kit II, human (Miltenyi Biotec) according to the attached instructions.\nAfter the isolated cells were washed with SM, the isolated cells were seeded in a 96-well plate such that one well has 5×10^4 cells, and centrifuged at 2000 rpm for 2 minutes. […] After the cells were washed, the cells were suspended with SM, and the fluorescent intensity was analyzed by flow cytometry (BD Biosciences, FACS CantoII)."}, "[3]": {"tested_on": "Th2 cells", "assay": "Cytotoxic activity against Th2 cells: cytokine production of PBMC after antibody treatment", "type": "cell-based, human", "conditions": "antibody 10 μg/mL 20 hours, then anti-CD3/anti-CD28 stimulation 3 days", "protocol": "The mononuclear cell layer prepared in the same manner as in Example 13 was washed twice with RPMI-1640 (Wako Pure Chemical Industries) to which 1/10 volume FBS (GIBCO Inc.), 200 mM-L-Glutamine Stock Solution (NACALAI TESQUE, Inc.), 10 mM MEM Non-Essential Amino Acids Solution (GIBCO Inc.), 100 mM Sodium Pyruvate (GIBCO Inc.), 1 M HEPES Buffer Solution (GIBCO Inc.), and 1/100 volume Penicillin-Streptomycin, Liquid (GIBCO Inc.) were added [hereinafter, referred to as peripheral blood mononuclear cell (PBMC) culture medium], thereby preparing a 1×10^7 cells/mL cell suspension.\nThe prepared cell suspension was seeded in a 96-well plate at 100 μL/well, chLym2 antibody, the humanized anti-human CRTH2 antibody LV0HV1 or the isotype control antibody described in Example 8 was added thereto at a final concentration of 10 μg/mL to cause a reaction in a 5% CO2 incubator at 37° C. for 20 hours.\nThe cells after the reaction were washed 7 times with a PBMC culture medium to remove the test antibodies thoroughly. Thereafter, the cells were suspended with 100 μL of PBMC culture medium and seeded in a plate in which anti-CD3 antibody OKT3 (Abeam plc.) was immobilized at a concentration of 1 μg/mL. Next, an anti-CD28 antibody (BD Biosciences) prepared to have a concentration of 2 μg/mL was added thereto at 100 μL/well to cause a reaction in a 5% CO2 incubator at 37° C. for 3 days.\nThe supernatant after the reaction was recovered, and cytokine in the supernatant was quantified using Human IFN-γ Flex Set (BD Biosciences), Human IL-5 Flex Set (BD Biosciences), and Human IL-13 Flex Set (BD Biosciences) according to the attached instructions."}}, "data": [{"molecule": "B1", "values": [{"measurement": "reactivity against cells expressing mutated human CRTH2", "setting": "[1]", "result": "additionally lost"}, {"measurement": "reactivity against human basophils", "setting": "[2]", "result": "has reactivity"}, {"measurement": "production of IL-5 (Th2 cytokine)", "setting": "[3]; FIG. 12(A)", "result": "reduced"}, {"measurement": "production of IL-13 (Th2 cytokine)", "setting": "[3]; FIG. 12(A)", "result": "reduced"}, {"measurement": "production of IFN-γ (Th1 cytokine)", "setting": "[3]; FIG. 12(B)", "result": "not changed"}]}]}
